Consider one protein from patent US20060226082A1, “Methods for substrate and modulator screening using enzyme-reactor chromatography/tandem mass spectrometry” (McMaster University, priority 2005, published 2006).

Substrate in this data set: Nc1ncnc2c1ncn2[C@@H]1O[C@H](CO)[C@@H](O)[C@H]1O
Nature of the data set: Absorbance-based assay of ADA in solution. The data set is classed as biochemical, bovine. To be noted: other: ADA in solution, absorbance assay (FIG. 7). The protocol:
FIG. 7 is a graph showing the assessment of Km values for ADA in solution using an absorbance-based assay.
The KI value was determined by extrapolation of IC50 values to the point of zero substrate concentration. The method is based on the derivation described by Cheng and Prusoff,^26 as shown below. Km values were obtained using immobilized enzyme reactor columns by plotting the concentration of product formed upon infusion of a given concentration of substrate and fitting the data to the Michaelis-Menten equation. The data was compared to that obtained using a conventional absorbance based assay (see below).^27

B1: adenosine deaminase (ADA) in solution (Bos taurus) (protein)
chain: MAQTPAFNKPKVELHVHLDGAIKPETILYYGRKRGIALPADTPEELQNIIGMDKPLSLPEFLAKFDYYMPAIAGCREAVKRIAYEFVEMKAKDGVVYVEVRYSPHLLANSKVEPIPWNQAEGDLTPDEVVSLVNQGLQEGERDFGVKVRSILCCMRHQPSWSSEVVELCKKYREQTVVAIDLAGDETIEGSSLFPGHVKAYAEAVKSGVHRTVHAGEVGSANVVKEAVDTLKTERLGHGYHTLEDATLYNRLRQENMHFEVCPWSSYLTGAWKPDTEHPVVRFKNDQVNYSLNTDDPLIFKSTLDTDYQMTKNEMGFTEEEFKRLNINAAKSSFLPEDEKKELLDLLYKAYGMPSPASAEQCL
notes: Adenosine deaminase (ADA, Type V, from bovine intestine, EC 3.5.4.4); purchased Sigma-Aldrich (Oakville, Ontario, Canada) Type V (catalogue number not given); host or cells: bovine intestine (tissue-derived)
In general, Km refers to the concentration of substrate that gives half-maximal velocity. B1: the Km was 89 µM.
